# Experimental data from patent US20250084142A1 (INTARCIA THERAPEUTICS, published 2025).
# Starred links: 1 amine or outer side, 2 acyl side, 3 side chain; linkers in the order of their positions; H or OH if unused. Positions of bridges follow the written chain, without caps; N, C: chain ends. Groups on a side chain read outwards from the residue. No end group written: not given here. *: point of attachment. C20 diacid = O=C(O)CCCCCCCCCCCCCCCCCCC(=O)*; γGlu = O=C(O)[C@H](CCC(=O)[*:2])N[*:1]
# T1: NPY2R
# T1 sequence (P49146 1-381, species assumed, looked up): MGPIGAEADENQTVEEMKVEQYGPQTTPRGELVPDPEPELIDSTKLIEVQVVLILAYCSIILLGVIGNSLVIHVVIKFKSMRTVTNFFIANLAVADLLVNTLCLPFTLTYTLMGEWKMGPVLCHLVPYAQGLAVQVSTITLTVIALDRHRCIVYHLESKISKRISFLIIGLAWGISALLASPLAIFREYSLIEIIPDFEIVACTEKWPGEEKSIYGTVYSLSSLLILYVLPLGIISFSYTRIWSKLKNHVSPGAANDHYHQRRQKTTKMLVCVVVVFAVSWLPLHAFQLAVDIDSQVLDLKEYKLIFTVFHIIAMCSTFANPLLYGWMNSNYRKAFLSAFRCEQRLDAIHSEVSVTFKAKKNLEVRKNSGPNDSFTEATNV
# T2: NPY5R
# T2 sequence (Q15761 1-445, species assumed, looked up): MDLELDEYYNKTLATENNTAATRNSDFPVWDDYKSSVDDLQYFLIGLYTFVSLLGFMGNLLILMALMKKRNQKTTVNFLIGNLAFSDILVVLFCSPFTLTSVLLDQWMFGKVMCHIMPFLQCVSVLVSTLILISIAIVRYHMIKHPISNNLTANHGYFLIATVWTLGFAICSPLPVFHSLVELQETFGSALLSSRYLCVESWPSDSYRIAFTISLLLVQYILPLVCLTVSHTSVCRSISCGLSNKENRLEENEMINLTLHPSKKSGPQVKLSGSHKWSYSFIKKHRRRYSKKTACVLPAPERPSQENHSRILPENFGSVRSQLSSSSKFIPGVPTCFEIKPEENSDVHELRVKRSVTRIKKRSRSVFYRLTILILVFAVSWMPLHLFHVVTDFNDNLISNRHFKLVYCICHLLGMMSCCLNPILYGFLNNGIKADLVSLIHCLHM
# Tests used:
# [1] = target: T1, NPY2R; assay: cell-based or functional assay
# [2] = target: T2, NPY5R; assay: cell-based or functional assay
Binder,NPY2R pEC50 [1],NPY5R pEC50 [2]
PKPEAPGK([γGlu-γGlu-C20 diacid])DASPEEWERYYKDLRHYLNWLTRQRF-NH2 (lactam 16-20) [Compound A41],"10.5 -Log(EC50, M)","9.3 -Log(EC50, M)"
PKPEAPGK([γGlu-γGlu-C20 diacid])DASPEEWDRYYKDLRHYLNWLTRQRF-NH2 (lactam 16-20) [Compound A42],"10.3 -Log(EC50, M)","9.1 -Log(EC50, M)"
PKPEKPGK([γGlu-γGlu-C20 diacid])DASPEEWSRYYKDLRHYLNWLTRQRF-NH2 (N-terminus assumed; SMILES CC(C)C[C@H](NC(=O)[C@H](CC(=O)O)NC(=O)[C@H](CCCCN)NC(=O)[C@H](Cc1ccc(O)cc1)NC(=O)[C@H](Cc1ccc(O)cc1)NC(=O)[C@H](CCCNC(=N)N)NC(=O)[C@H](CO)NC(=O)[C@H](Cc1c[nH]c2ccccc12)NC(=O)[C@H](CCC(=O)O)NC(=O)[C@H](CCC(=O)O)NC(=O)[C@@H]1CCCN1C(=O)[C@H](CO)NC(=O)[C@H](C)NC(=O)[C@H](CC(=O)O)NC(=O)[C@H](CCCCNC(=O)CC[C@H](NC(=O)CC[C@H](NC(=O)CCCCCCCCCCCCCCCCCCC(=O)O)C(=O)O)C(=O)O)NC(=O)CNC(=O)[C@@H]1CCCN1C(=O)[C@H](CCCCN)NC(=O)[C@H](CCC(=O)O)NC(=O)[C@@H]1CCCN1C(=O)[C@H](CCCCN)NC(=O)[C@@H]1CCCN1)C(=O)N[C@@H](CCCNC(=N)N)C(=O)N[C@@H](Cc1c[nH]cn1)C(=O)N[C@@H](Cc1ccc(O)cc1)C(=O)N[C@@H](CC(C)C)C(=O)N[C@@H](CC(N)=O)C(=O)N[C@@H](Cc1c[nH]c2ccccc12)C(=O)N[C@@H](CC(C)C)C(=O)N[C@H](C(=O)N[C@@H](CCCNC(=N)N)C(=O)N[C@@H](CCC(N)=O)C(=O)N[C@@H](CCCNC(=N)N)C(=O)N[C@@H](Cc1ccccc1)C(N)=O)[C@@H](C)O) [Compound A75],,"9.3 -Log(EC50, M)"
PKPEAPGKDASPEEWNRYYADLRHYLNWLTRK([γGlu-γGlu-C20 diacid])RF-NH2 (N-terminus assumed; SMILES CC(C)C[C@H](NC(=O)[C@H](CC(=O)O)NC(=O)[C@H](C)NC(=O)[C@H](Cc1ccc(O)cc1)NC(=O)[C@H](Cc1ccc(O)cc1)NC(=O)[C@H](CCCNC(=N)N)NC(=O)[C@H](CC(N)=O)NC(=O)[C@H](Cc1c[nH]c2ccccc12)NC(=O)[C@H](CCC(=O)O)NC(=O)[C@H](CCC(=O)O)NC(=O)[C@@H]1CCCN1C(=O)[C@H](CO)NC(=O)[C@H](C)NC(=O)[C@H](CC(=O)O)NC(=O)[C@H](CCCCN)NC(=O)CNC(=O)[C@@H]1CCCN1C(=O)[C@H](C)NC(=O)[C@H](CCC(=O)O)NC(=O)[C@@H]1CCCN1C(=O)[C@H](CCCCN)NC(=O)[C@@H]1CCCN1)C(=O)N[C@@H](CCCNC(=N)N)C(=O)N[C@@H](Cc1c[nH]cn1)C(=O)N[C@@H](Cc1ccc(O)cc1)C(=O)N[C@@H](CC(C)C)C(=O)N[C@@H](CC(N)=O)C(=O)N[C@@H](Cc1c[nH]c2ccccc12)C(=O)N[C@@H](CC(C)C)C(=O)N[C@H](C(=O)N[C@@H](CCCNC(=N)N)C(=O)N[C@@H](CCCCNC(=O)CC[C@H](NC(=O)CC[C@H](NC(=O)CCCCCCCCCCCCCCCCCCC(=O)O)C(=O)O)C(=O)O)C(=O)N[C@@H](CCCNC(=N)N)C(=O)N[C@@H](Cc1ccccc1)C(N)=O)[C@@H](C)O) [Compound A50],"6 -Log(EC50, M)","6 -Log(EC50, M)"
PKPEAPGKDASPEEWNRYYADLRHK([γGlu-γGlu-C20 diacid])LNWLTRQRF-NH2 (N-terminus assumed; SMILES CC(C)C[C@H](NC(=O)[C@H](CC(=O)O)NC(=O)[C@H](C)NC(=O)[C@H](Cc1ccc(O)cc1)NC(=O)[C@H](Cc1ccc(O)cc1)NC(=O)[C@H](CCCNC(=N)N)NC(=O)[C@H](CC(N)=O)NC(=O)[C@H](Cc1c[nH]c2ccccc12)NC(=O)[C@H](CCC(=O)O)NC(=O)[C@H](CCC(=O)O)NC(=O)[C@@H]1CCCN1C(=O)[C@H](CO)NC(=O)[C@H](C)NC(=O)[C@H](CC(=O)O)NC(=O)[C@H](CCCCN)NC(=O)CNC(=O)[C@@H]1CCCN1C(=O)[C@H](C)NC(=O)[C@H](CCC(=O)O)NC(=O)[C@@H]1CCCN1C(=O)[C@H](CCCCN)NC(=O)[C@@H]1CCCN1)C(=O)N[C@@H](CCCNC(=N)N)C(=O)N[C@@H](Cc1c[nH]cn1)C(=O)N[C@@H](CCCCNC(=O)CC[C@H](NC(=O)CC[C@H](NC(=O)CCCCCCCCCCCCCCCCCCC(=O)O)C(=O)O)C(=O)O)C(=O)N[C@@H](CC(C)C)C(=O)N[C@@H](CC(N)=O)C(=O)N[C@@H](Cc1c[nH]c2ccccc12)C(=O)N[C@@H](CC(C)C)C(=O)N[C@H](C(=O)N[C@@H](CCCNC(=N)N)C(=O)N[C@@H](CCC(N)=O)C(=O)N[C@@H](CCCNC(=N)N)C(=O)N[C@@H](Cc1ccccc1)C(N)=O)[C@@H](C)O) [Compound A52],"8.4 -Log(EC50, M)","8 -Log(EC50, M)"
PKPEK([γGlu-γGlu-C20 diacid])PGKDASPKEWNRYYKDLRHYLNWLTRQRF-NH2 (N-terminus assumed; SMILES CC(C)C[C@H](NC(=O)[C@H](CC(=O)O)NC(=O)[C@H](CCCCN)NC(=O)[C@H](Cc1ccc(O)cc1)NC(=O)[C@H](Cc1ccc(O)cc1)NC(=O)[C@H](CCCNC(=N)N)NC(=O)[C@H](CC(N)=O)NC(=O)[C@H](Cc1c[nH]c2ccccc12)NC(=O)[C@H](CCC(=O)O)NC(=O)[C@H](CCCCN)NC(=O)[C@@H]1CCCN1C(=O)[C@H](CO)NC(=O)[C@H](C)NC(=O)[C@H](CC(=O)O)NC(=O)[C@H](CCCCN)NC(=O)CNC(=O)[C@@H]1CCCN1C(=O)[C@H](CCCCNC(=O)CC[C@H](NC(=O)CC[C@H](NC(=O)CCCCCCCCCCCCCCCCCCC(=O)O)C(=O)O)C(=O)O)NC(=O)[C@H](CCC(=O)O)NC(=O)[C@@H]1CCCN1C(=O)[C@H](CCCCN)NC(=O)[C@@H]1CCCN1)C(=O)N[C@@H](CCCNC(=N)N)C(=O)N[C@@H](Cc1c[nH]cn1)C(=O)N[C@@H](Cc1ccc(O)cc1)C(=O)N[C@@H](CC(C)C)C(=O)N[C@@H](CC(N)=O)C(=O)N[C@@H](Cc1c[nH]c2ccccc12)C(=O)N[C@@H](CC(C)C)C(=O)N[C@H](C(=O)N[C@@H](CCCNC(=N)N)C(=O)N[C@@H](CCC(N)=O)C(=O)N[C@@H](CCCNC(=N)N)C(=O)N[C@@H](Cc1ccccc1)C(N)=O)[C@@H](C)O) [Compound A37],"10.8 -Log(EC50, M)","8.6 -Log(EC50, M)"
PKPEAPGKDASPEEWNRYYADLRHYLK([γGlu-γGlu-C20 diacid])WLTRQRF-NH2 (N-terminus assumed; SMILES CC(C)C[C@H](NC(=O)[C@H](CC(=O)O)NC(=O)[C@H](C)NC(=O)[C@H](Cc1ccc(O)cc1)NC(=O)[C@H](Cc1ccc(O)cc1)NC(=O)[C@H](CCCNC(=N)N)NC(=O)[C@H](CC(N)=O)NC(=O)[C@H](Cc1c[nH]c2ccccc12)NC(=O)[C@H](CCC(=O)O)NC(=O)[C@H](CCC(=O)O)NC(=O)[C@@H]1CCCN1C(=O)[C@H](CO)NC(=O)[C@H](C)NC(=O)[C@H](CC(=O)O)NC(=O)[C@H](CCCCN)NC(=O)CNC(=O)[C@@H]1CCCN1C(=O)[C@H](C)NC(=O)[C@H](CCC(=O)O)NC(=O)[C@@H]1CCCN1C(=O)[C@H](CCCCN)NC(=O)[C@@H]1CCCN1)C(=O)N[C@@H](CCCNC(=N)N)C(=O)N[C@@H](Cc1c[nH]cn1)C(=O)N[C@@H](Cc1ccc(O)cc1)C(=O)N[C@@H](CC(C)C)C(=O)N[C@@H](CCCCNC(=O)CC[C@H](NC(=O)CC[C@H](NC(=O)CCCCCCCCCCCCCCCCCCC(=O)O)C(=O)O)C(=O)O)C(=O)N[C@@H](Cc1c[nH]c2ccccc12)C(=O)N[C@@H](CC(C)C)C(=O)N[C@H](C(=O)N[C@@H](CCCNC(=N)N)C(=O)N[C@@H](CCC(N)=O)C(=O)N[C@@H](CCCNC(=N)N)C(=O)N[C@@H](Cc1ccccc1)C(N)=O)[C@@H](C)O) [Compound A51],"6 -Log(EC50, M)","6 -Log(EC50, M)"
PKPEAPGK([γGlu-γGlu-C20 diacid])DASPEEWKRYYEDLRHYLNWLTRQRF-NH2 (lactam 16-20) [Compound A43],"10.5 -Log(EC50, M)","8.5 -Log(EC50, M)"
PKPEAPGK([γGlu-γGlu-C20 diacid])DASPEEWKRYYDDLRHYLNWLTRQRF-NH2 (lactam 16-20) [Compound A44],"9.7 -Log(EC50, M)","9.2 -Log(EC50, M)"
